Experimental data taken from paper PMC10826351.

Molecular target: T1, PbtAC (PbtA C-terminal domain) (Vibrio anguillarum RV22) (UniProt A0A289GIJ0)
T1 sequence: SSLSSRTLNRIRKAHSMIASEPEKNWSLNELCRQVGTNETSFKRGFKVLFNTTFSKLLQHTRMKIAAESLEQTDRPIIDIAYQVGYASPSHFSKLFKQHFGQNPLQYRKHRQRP
Experiment: EMSA
Conditions: 1 mM Tris pH 7.5, 155 mM KCl, 0.1 mM DTT, 5% glycerol, 5 mM MgCl2, 1 mM EDTA, 0.3 mg/mL BSA, 30 min at 20 C

| Substance | binding |
| --- | --- |
| AAAAATAGACGACCCGATCTATTCAAGCTTGTTTAAAATAACAATCATAAACGTCGATTCACGCTCTTTTTATGCCTTATTCAGTTAGCAGGTAAAAGACAGAATCGGCACTATAAGTTCAATATGGATACCACAG (double strand) [Probe 5 (frpA)] | binds |
| TAAAACAAAACCAGAAAATAAAATAAAAATCAACAAAATTAAATGCTTAATTTTAATTAAGTTC (double strand) [Probe 4 (frpA, 6xAAAAT low complexity region)] | no binding |

Same assay, conditions: 1 mM Tris pH 7.5, 155 mM KCl, 0.1 mM DTT, 5% glycerol, 5 mM MgCl2, 1 mM EDTA, 0.3 mg/mL BSA, 30 min at 20 C, scale: free probe band ratio to no-protein control

| Substance | binding signal |
| --- | --- |
| TATTGAGCAATTGAGGATTAATGAATGTGGCCACTAATATACTAATACCGATTGCTGAGTGGTGGGCTAGTTACGACTAAACGCGACGATTTTATACCTAATTGCGTTAGCGATGGCATGCATATTCAGCAAAAATAGCCTCCATTTATG (double strand) [Probe 12 (frpC)] | 0.7 |

Tested on: PbtAC (PbtA C-terminal domain) (Vibrio anguillarum RV22)
Experiment: EMSA
Conditions: 1 mM Tris pH 7.5, 155 mM KCl, 0.1 mM DTT, 5% glycerol, 5 mM MgCl2, 1 mM EDTA, 0.3 mg/mL BSA, 30 min at 20 C, scale: free probe band ratio to no-protein control

| Substance | binding signal |
| --- | --- |
| LPS wzi(ab) promoter (P4) | 0.26 |
| vipA promoter (P1?) | 0.2 |
| vgrG promoter (P2?) | 0.09 |
| PfrpA (Probe 1) | 0.49 |
| hcp2 promoter (P6) | 0.28 |
| hcp1 promoter (P5) | 0.74 |
| PfrpC (Probe 9) | 0.41 |
| vanT promoter (P3) | 0.81 |
